Consider twelve sequences from the DeepSol protein solubility set.

The nature of this data set: soluble on expression in E. coli; label from the status in PepcDB or PDB records.
Regarding “MKAFDIMKASQIACCFEVGSFKPGNVHKNRDYDDIKYHHFISSGIAFGDVIHQACLEKNNIGNFIKKGVIESKKWSPTNANLGIIMLHMPIAIAASNLDKFSESALKKETEKIIKNTTVQDAIDVYRAIEIALAFVNAPENGPDLKSKDAKDELIEKNLTLYDVFKISSTWDSISNEWTENFKISYKGYNLIKEYYEKYNNINIAVTKTFINLLSNYPDTLIARKKGIDVSKMVSEKAKEVLNNFNEESVLEFDKFLSKEGNKLNPGTTADLIASSLLIFLLDRISNEKTILY”, the “soluble on expression in E. coli” value is reported as “not soluble”.
Regarding “MFMNKPFGSKRCEPFHESEHLCEAFAITEAILARYQRGKRSFTSSEKSGLAALIKRIPYDILVEVLDQSGFTPTSNATPPVDYLAMMEHTMTHGASITHALQYLNDLMTKCTGCPGIRTYYHNPNDDVLADPVHDTAALIDETTAVGKSVVTKQYLNIAGAHYIPLIHGDIVVGCVEVPRFSGNLEKLPSFPSLIRAVTCTAHKFIEEARINWNREKAEAMLQMATRLARDNLDETVLASSIMNTVKSLTESARCSLFLVKDDKLEAHFEDGNVVSIPKGTGIVGYVAQTGETVNIVDAYADDRFNREVDKATGYRTKTILCMPVMYEGTIVAVTQLINKLDLTTESGLRLPRVFGKRDEELFQTFSMFAGASLRNCRINDRLLKEKKKSDVILDVVTVLSNTDIRDVDGIVRHALHGAKKLLNADRSTLFLVDKERNELCSRMADSVAGKEIRFPCGQGIAGTVAASGVGENIQDAYQDPRFNREVDKQLGYRTQTILCEPIILNGEILAVVQLVNKLDTSGEVTVFTEDDRDTFRVFSLFAGISINNSHLLEFAVKAGREVMELNEHRATLFNKNVPSRAVKRVTAITKVEREAVLVCELPSFDVTDVEFDLFRARESTDKPLDVAAAIAYRLLLGSGLPQKFGCSDEVLLNFILQCRKKYRNVPYHNFYHVVDVCQTIHTFLYRGNVYEKLTELECFVLLITALVHDLDHMGLNNSFYLKTESPLGILSSASGNTSVLEVHHCNLAVEILSDPESDVFDGLEGAERTLAFRSMIDCVLATDMAKHGSALEAFLASAADQSSDEAAFHRMTMEIILKAGDISNVTKPFDISRQWAMAVTEEFYRQGDMEKERGVEVLPMFDRSKNMELAKGQIGFIDFVAAPFFQKIVDACLQGMQWTVDRIKSNRAQWERVLETRLSTSSGNNSSTR”, the “soluble on expression in E. coli” value is recorded as “not soluble”.
Then “MALLVTQPSEGLPPLAATSRSIYEAAYQLSQGTGPFAIDTERAGAYRYDDRAYLLQIRREGSGTVLIDPEANRRLVTSVLGKVINNQPWIIHAAATDLPCLSELGFYPSTIFDTELAGRLAGLPRVNLASMLEERLEVTLKKAHGAEDWSRRPLPHSWLVYAALDVEKLIPLAESMKLLLEAHGKLEWHKQECAHLINTSSHGLDTQRSWQDIKGVSRLTRPRQLVVAEALWELRDDEARMKNTSVSRLLPDKVLISVAQRPPRNSQAALRASEIPKQYRKRIARWMPTINDVLESDPRTWPHTPQFDENQLPSKYVWEKIHPESLDDFEEVKNSIVEKALLLNLPAENLMQPHSVKELCWQLRDVPRPIAQDDVIECLMRLEARPWQIDNSASVITDTLNKIEHAS”, with “not soluble”.
For “MSLKRSEFPENELWDLTALYKDRQDFLLAIEKALEDIKVFKKNYEGKLNCVEDFTSALMEIEHIYIQMSHIDTYAFMPQTTDFSNEEFAQISQAGSDFATKANVLLSFFNTALANADIKILDSLENNPHFKATIRQAKIQKQHLLSPEVEKALTNLNEVLNTPYDIYTKMRAGDFDMEDFEVDGKTYKNSFVTYENYFQNHENAEIREKSFRSFSKGLRKHQNAAAAAYLAKVKSEKLIADMRGYDSVFDYLLSEQEVDRSMFDRQIDLIMDEFGPVAQRFLKHIADVNGIEKMTFADWKLDIDNELNPEVSINDAYDLVMKSVAPLGKEYSQEVERYQKERWVDFAANANKDSGGYAADPYKVHPYVLMSWTGRMSDVYTLIHEIGHSGQFIFSDNHQSFFNTHMSTYYVEAPSTFNELLLSDYLENQFDTARQKRFALAHRLTDTYFHNFITHLLEAAFQRKVYTLIEEGGTFGAEQLNAIMKEVLTQFWGDAIEIDDDAALTWMRQAHYYMGLYSYTYSAGLVISTAGYLNLKNNPNGAKEWLAFLKSGGSRTPLETALLISADISTDKPLRDTINFLSNTVDQIINYSNLIEQEGHHHHHH”, the “soluble on expression in E. coli” value is reported as “soluble”.
As to “MSLKHVIVETEETGYQTRSRVVSVEARTIRVPLERSTAFSTRLVTARDYTVVRVTTADGHYGIGFCYSGNRAGMLVTYAVRELFAPLLLGRSALDVEGSWCAMYDESLLQGRAGSVMRALSILDIALWDRNARATGLPLSRYLGGTCSATVPAYASGGYYLEGKTPEHLGEEMAGYVALGFRAVKMKVGRLDPRSEEARIRAAREAIGDDVLLMLDANNAWSDVPTALEYMRRYEPFNPYWIEEPFSPDDIESHAQLSRRTPVTVATGEIEAGRWRHQELLDKRAALILQSDAAVCGGISEWRRIAASAAAVGVTMCPHWFHDLHVHLVASTTNARYVEFFPDDQVLNFRRLVDTQLSFADGKLTVPTRPGLGFDFDEAALNEYALDDWAEGHHHHHH”, the “soluble on expression in E. coli” value is “not soluble”.
“MGSDKIHHHHHHMELKLERHPANPILEPSPYFLWESRFVFNPAVVYDGELFHLLYRAQGEDMVSRIGYAVSTDGIHFNKFEKPVFAPKSDDELYGVEDPRITKIGDEYYMVYTAYSPRGVRIAMASTKNFITWKRYGVVIPEVDNKDAALFPEKINGKYVMFHRIPPDMWLAFSDDLVHWDNFVKIASPRPGMWDDLKIGVGAPPIKTEYGWLVLYHGVQNTGTSRPIYRLGFMLLDLEDPTKVIKRSKEPILEPEEDWEKFGGVPNVVFSDAMIEYNGYYYVYYGAADNCIALATIPVEKVMKWCRE”: the “soluble on expression in E. coli” value is “not soluble”.
Regarding “MMNNMDSIINYIYEGDYFIVTSHISPDGDNIGSTLSMYYTLKNLGKNVYYVLDDEAPLNLRFLVEGVKIYKSNEFNMKNYSLIALDCGDKMRICVSDEIKNNASKLICIDHHASNDSYGDLNYVDIDASSTCELVYNLLVRFQQIKDINIINEDIATCLYTGLVTDTGNFSYSNVHASSFEMAKNLLVLGAQKNTIIQNIYQSNSSGYYKLLGEALKGLEIFDSKVSSIVLTQDMMNRNNISFNDVDGITTYTRDIKGIEVGILFKEKKQNEIKVSFRSKNYVDVSEIAKLFGGGGHVRAAGCTIRDSIDNAKKMVLEAVLKSI”, the “soluble on expression in E. coli” value is “not soluble”.
Then “MGHHHHHHSHMHPWNQQVPDKESGGGSHGNAASSCSRFHYSYAGVHSESTHFSLVLLLDWAMAFILCPLTCPGECEGSTGKLECCLCLPSQWAVLTAAPHPYRWSQEAGRVGEGKIGKTGRPRPRQNSLPSLHFWSPVVMCL”, with “not soluble”; and “MRGSHHHHHHGSSEPLILDAPNADACIIWLHGLGADRTDFKPVAEALQMVLPSTRFILPQAPSQAVTVNGGWVMPSWYDILAFSPARAIDEDQLNASADQVIALIDEQRAKGIAAERIILAGFSQGGAVVLHTAFRRYAQPLGGVLALSTYAPTFDDLALDERHKRIPVLHLHGSQDDVVDPALGRAAHDALQAQGVEVGWHDYPMGHEVSLEEIHDIGAWLRKRL”, with “soluble”.
Consider “IHFTTEVITSRIEPANRYVAEKLRITPGQDILYLERLRSIGDEKAMLIENRINIELCPGIVEIDFNQHNLFPTIESLSKRKIRYSESRYAARLIGNERGHFLDISEDAPVLHLEQLVFFSRELPVEFGNVWLKG”, for which the “soluble on expression in E. coli” value is given as “not soluble”.
“MNHVAVIGGGIIGASWAVVFARRGLEVTIVERDAACLAGLPARLAGMIERSASLLGAGEQPGDVAARIGATDALAAAVGRADYVQEAVSENLALKRTLFAELDALAPAHALLASSTSTYGASQFTEALAGRARCLVAHPMTPPHLSPVVEMAASAWTDPQVLAGAEAFMRSLGQHPVRIRKEIPGFVLNRLQGALLMEMFRVIADDVISPADADALISQGLGLRWATLGPLEGVDLNAPGGIADYLQRYGHIFNDMAVGQGLPAPVDAELISALDGAMRAALPLERLEAKRGWRDRAIAGVRVALHDYTGEKPLEHHHHHH”: the “soluble on expression in E. coli” value is on record as “not soluble”.
Then “AMAELKEFLNKPAATSDVPPAPAGFDFDAAKKLVDVRCNKCHTLDSVADLFRTKYKKTGQVNLIVKRMQGFPGSGISDDDAKTIGIWLHEKF”, with “soluble”.
